Experiments:
HNP-(R14,24orn) (human) = assay: AUC
[1] = molecular target: human neutrophil peptide-1 (HNP-1) (human); assay: AUC

| population of oligomer (HNP-(R14,24orn) (human)) | population of oligomer [1] | Substance |
| --- | --- | --- |
| 8% | – | HNP-(R14,24orn) (peptide) |
| – | 8% | human neutrophil peptide-1 (HNP-1) |

From article PMC6291843
